Assay: yeast display, Sf9 membrane polyspecificity reagent, FACS + sequencing; frameworks hold sequencing errors
In short: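 In a synthetic yeast display library (Saccharomyces cerevisiae BJ5465), nanobody expression was induced with galactose for 36–48 hours. FACS gates were set low and high (top ~1%) using anti-HA fluorescence for expression and streptavidin fluorescence for binding of the Sf9 membrane reagent. Each polyreactivity label is drawn from the gate of origin.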

Row | Sequence | polyreactivity (PSR sort gate)
1 | QVQLVESGGGLVQAGGSLRLSCAASGRIFDHYTLGWYRQAPGKERDFVAAISSSGGSTYYADSVKGRFTSSRDTAKNTVYLQLNSLKPEDTAVYDCAAVYHRLWGYDYWGQGPQVTVSS | high polyreactivity
2 | QVQLVESGGGLVQAGGSLRLSCAASGRIFDIYAMGWYRQAPGKERELVAGITSVGSTNYADSVKGRFTISRDNAKNTVYLQMNSLKPEDTAVYYCAKDYLKSAAPSPQGLTHYEYWGQGTQVTVSS | low polyreactivity
3 | QVQLVESGGGLVQAGGSLRLSCAASGRIFDKYTMGWYRQAPGKERELVATITRGGVSMYYADSVKGRFTISRDNAKNTVYLQMNSLKPEDTAVYYCNAVWRLRVRYGYWGQGTQVTVSA | high polyreactivity
4 | QVQLVESGGGLVQAGGSLRLSCAASGRIFDLNAMGWYRQAPGKERELVAAITWSGDSTYYADSVKGRFTISRDNAKNTVYLQMNSLNPEDTAVYYCAAASRTSYSWVDYEFDYWGQGTQVTVSS | low polyreactivity
5 | QVQLVESGGGLVQAGGSLRLSCAASGRIFDLYTMGWYRQAPGKERELVAAIRWSDGSTYYADSVKGRFTISRDNAKNTVYLQMNSLKPEDTAVYYCARDADPNIGGYYYWGQGTQVTVSS | low polyreactivity
6 | QVQLVESGGGLVQAGGSLRLSCAASGRIFDPNAMGWYRQAPGKERELVAAISSRSGSTFYADSVKGRFTISRDNAKNTVYLQMNSLKPEDTAVYYCAAVYRFYKHNYWGQGTQVTVSS | high polyreactivity
7 | QVQLVESGGGLVQAGGSLRLSCAASGRIFDPYAMGWYRQAPGKERELVAAINIGGGTNYADSVKGRFTISRDNAKNTVYLQMNSLKPEDTAVYYCAAPVPAYQFYYRLKSFGRRYDHWGQGTQVTVSS | low polyreactivity
8 | QVQLVESGGGLVQAGGSLRLSCAASGRIFDQNAMGWYRQAPGKERELVAAITWSGGSTNYADSVKVRFTISRDNSKNTVYLLMNSLKTEDTAVYYCNKVSYGYSTYGYWGQGTQVTVSS | low polyreactivity
9 | QVQLVESGGGLVQAGGSLRLSCAASGRIFDRNAMGWYRQATGKERELVARIDPGDDTNYADSVKGRFTISRDNAKNTVYLLMNSLKPEDTAVYYCATDPDYVLYRTAYYEYDYWGHGTQVTVSS | low polyreactivity
10 | QVQLVESGGGLVQAGGSLRLSCAASGRIFDRNTMGWYRQAPGKEREFVAAISGSGGRTYYADSVKGRFTISRDNAKNTVYLQMNSLKPEDTAVYYCAAYYSRQYVGYGYWGQGTQVTVSS | high polyreactivity
11 | QVQLVESGGGLVQAGGSLRLSCAASGRIFDRYAMGWYREAPGKERELVAAISGSGGRTYYADSVKGRFTISRDNAKNTVYLQMNSLKPEDTAVYYCAVKFSLYGQGYPKGDYWGQGTQVTVSS | high polyreactivity
12 | QVQLVESGGGLVQAGGSLRLSCAASGRIFDRYVMGWYRQAPGKERELVAAISQSGGGTYYADSVKGRFTISRDNAKNTVYLQMNSLNPEDTAVYYCAARGTGYHGYGYWGQGSQVTVSS | high polyreactivity
13 | QVQLVESGGGLVQAGGSLRLSCAASGRIFDSNALGWYRQAPGKERELVAAISYDGGSTYYADSVKGRFTISRDNAKNTVYLQMNSLKPEDTAVYYCAADDGWYYYYGYDYWGQGTQVTVSS | low polyreactivity
14 | QVQLVESGGGLVQAGGSLRLSCAASGRIFDSYAMGWYRQAPGKERELVAVISNNDGTTYYADSVKGRFTISRDNAKKTFYLQMNSLKPEDTAVYYCAAEEPLFGYLWYVVTYAGFYDYWGQGTQVTVSS | low polyreactivity
15 | QVQLVESGGGLVQAGGSLRLSCAASGRIFDSYTMGWYRQAPGKERELVAAISRGGGSTYYADSVKGRFTISRDNAKNTVYLQMNSLKPEDTAVYYCAASSYLNSRFKFDYWGQGTQVTVSS | low polyreactivity
16 | QVQLVESGGGLVQAGGSLRLSCAASGRIFDTYAMGWYSQAPGKERELVASISIDGSTYYADSVKGRFTISRDNAKNTVYLQMNSLKPEDTAVYYCNADGRYYTVRFEYWGQGTQVTVSS | low polyreactivity
17 | QVQLVESGGGLVQAGGSLRLSCAASGRIFDVNAMGWYRQAPGKEREFVAAINSRGDSTYYADSVKGRFTISRDNAKNTVYLQMNSLKPEDTAVYYCNVRGYSYSYRFWRYDYWGQGTQVTVSS | high polyreactivity
18 | QVQLVESGGGLVQAGGSLRLSCAASGRIFDVYAMGWYRQAHGKERELVARISDGGGSTYYADSVKGRFTISRDNAKNTVYLQMNSLKPEDTAVYYCASGGDLRLDRRFAFVSRGDYWGQGTQVTVSS | low polyreactivity
19 | QVQLVESGGGLVQAGGSLRLSCAASGRIFDVYAMGWYRQAPGKERELVASISWSDGSTYYADSVKGRFTLSRDNAKNTVYLQMNSLKPEDTAVYYCNALTELGGRWDDYWGQGTQVTVSS | low polyreactivity
20 | QVQLVESGGGLVQAGGSLRLSCAASGRIFDVYAMGWYRQAPVKERELVAAITWRGGTTYYADSVKGRFTISRDNAKNTVYLQMHTLKPEDTAVYYCNADLVYYSKHQKYSYDYWGQGTQVTVSS | low polyreactivity
21 | QVQLVESGGGLVQAGGSLRLSCAASGRIFDVYEMGWYRQAPGKERELVAAMTWSGTSTYYADSVKGRFTISRDNAKNTVYLQMNSLKPEDTAVYYCNALSYGRYLNYRGGMDYWGQGTQVTVSS | high polyreactivity
22 | QVQLVESGGGLVQAGGSLRLSCAASGRIFDYAMGWYRQAPGKERELVAAINSAGSTNYADSVKGRFTISRDNAKNTVYLQMNSLKPEDTAVYYCNTDYGSSYNYWGQGTQVTVSS | high polyreactivity

Row | Sequence | polyreactivity (PSR sort gate)
23 | QVQLVESGGGLVQAGGSLRLSCAASGRIFDYNAMGWYRQAPGKERELVAAISVSGGSTYYADSVKGRFTISRDNAKNTVYLQMNSLKPEDTAVYYCNAGYILDSFRYDHWGHGTQVTVSS | low polyreactivity
24 | QVQLVESGGGLVQAGGSLRLSCAASGRIFDYNTMGWYRQAPGKERELVAAITGGTGSTYYADSVKGRFTISRDNAKNTVYLHMNSLKPEDTAVYYCAAGFHKRVTPEILYDFWGQGTQVTVSS | low polyreactivity
25 | QVQLVESGGGLVQAGGSLRLSCAASGRIFDYNTMGWYRQAPGKERELVAAITGGTGSTYYADSVKGRFTISRDNAKNTVYLQMNSLKPEDTAVYYCAAGFHKRVTPEILYDYWGQGTQVTVSS | low polyreactivity
26 | QVQLVESGGGLVQAGGSLRLSCAASGRIFDYYAMGWYRQAPGKERELVAAINSGGSTYYADSVKGRFTISRDNAKNTVYLQMNSLKPEDTAVYYCNALRKSLRGGDYWGQGTQVTVSS | high polyreactivity
27 | QVQLVESGGGLVQAGGSLRLSCAASGRIFDYYAMGWYRQAPGKERELVAAITSGGTTTYYADSVKGRFTNSRDNAKNTVYLQLNSLKPEDTAVYFCAKYPYHIYHTDGDYWGQGTQVTVSS | low polyreactivity
28 | QVQLVESGGGLVQAGGSLRLSCAASGRIFDYYAMGWYRQAPGKERELVAAITVRGGTTYYADSVKGRFTISRDNAKNTVDLQMNSLKPEDTAVYYCAASDRRRYYYWGQGTQVTVSS | high polyreactivity
29 | QVQLVESGGGLVQAGGSLRLSCAASGRIFDYYDLGWYRQAPRKERELVAAITSSGTSTYYADSVKGRFTISRDNAKNTVYLQMNSLKPEDTAVYYCNARSIRPWGENGYWGQGTQVTVSS | high polyreactivity
30 | QVQLVESGGGLVQAGGSLRLSCAASGRIFEDYAMGWYRQAPGKERELVAAISSGGSTYADSVKGRFTISRDNAKNTVYLQMNSLKPEDTAVYYCAAYYRRSTYYYWGQGTQVTVSS | high polyreactivity
31 | QVQLVESGGGLVQAGGSLRLSCAASGRIFEGYAMGWYRQAPGKEELVAAITSDASTYYADSVKGRFTISRDNAKNTVYLQMNSLNPEDTAVYYCNAYTRGLEYDYWGQGTQVTVSS | high polyreactivity
32 | QVQLVESGGGLVQAGGSLRLSCAASGRIFEHYAMGWYRQAPGKERELVAAITVSGGSTYYADSVKGRFTISRDNAKNTVYLQMNSLKPEDTAVYYCNADQRDYGSYVTKLDYWGQGTQVTVSS | low polyreactivity
33 | QVQLVESGGGLVQAGGSLRLSCAASGRIFEIYALGWYRQAPGKERELVAAISWRGVSTYYADSVKGRFTISRDNAKNTVYLQMKSLKPEDTAVYYCNKDVDYFWYVEYDYWGQGTQVTVSS | low polyreactivity
34 | QVQLVESGGGLVQAGGSLRLSCAASGRIFERYAMGWYRQAPGKERELVAAISVSGSGTYYADSVKGRFTISRDNAKNTVYLQMNSLKPEDTAVYYCAADASLLGLFQGYDYWGQGTQVTVSS | low polyreactivity
35 | QVQLVESGGGLVQAGGSLRLSCAASGRIFEWNAMGWYRQAPGKERELVAAISWSGGSTYYADSVKGRFTISRDNAKNTVYLQMNSLKPEDTAVYYCAALTYRWSARDYWGQGTQVTVSS | high polyreactivity
36 | QVQLVESGGGLVQAGGSLRLSCAASGRIFFANTMGWYRQATGKERELVAAISLSSGSRYYADSVKGRFTISRDNAKNTVYLQMNSLKPEDTAVYYCAARGYSHVASRLYYYWGQGTQVTVSS | high polyreactivity
37 | QVQLVESGGGLVQAGGSLRLSCAASGRIFFAYAMGWYRQAQGKEREFVAAISDNDGSTYYADSVKGRFTISRDNAKNTVYLQMNSLKPEDTAVYYCNADLGYVYDYCGQGTQVTVSS | low polyreactivity
38 | QVQLVESGGGLVQAGGSLRLSCAASGRIFFDYAMGWYRQAPGKERELVADISYNGGSTNYADSVKGRFTISRDNAKNTVYLQMNSLKPEDTAVYYCNRAFVPVYDLDYYWGQGTQVTVSS | low polyreactivity
39 | QVQLVESGGGLVQAGGSLRLSCAASGRIFFDYAMGWYRQAPGKERELVAVITSSGSSTYYADSVKGRFTISRDNAKNTVYLQMNSLKPEDTAVYYCNAARLYSGLWYGYDYWGQGTQVTVSS | high polyreactivity
40 | QVQLVESGGGLVQAGGSLRLSCAASGRIFFGYAMGWYRLAPGKERELVAAISYGGGRTYYADSVKGRFTISRDNAKNTVSLQMNSLKPEDTAVDYCNKRVTGGSWSPGHYRYNYWGQGSQVTVSS | high polyreactivity
41 | QVQLVESGGGLVQAGGSLRLSCAASGRIFFGYAMGWYRQAPGKERELVASISRGGSTNYADSVKGRFTISRDNAKNTVYLQMNSLKPEDTAVYYCAASRYLQRYGMYYWGQGTQVTVSS | high polyreactivity
42 | QVQLVESGGGLVQAGGSLRLSCAASGRIFFGYAMGWYRQAPGKERELVATITSGGSTYYADSVKGRFTISRDNAKNTVYLQMNSLKPEDTAVYYCASQLHWVFTSGWAYRGSYDYWGQGTQVTVSS | low polyreactivity
43 | QVQLVESGGGLVQAGGSLRLSCAASGRIFFLYAMGWYRQAPGKERELVASITRRGGSTYYADSVKGRFTISRDNAKNTVYLQMNSLKPEDTAVYYCAAELYRSNVYHYDYWGQGTQVTVSS | high polyreactivity

Source: the nanobody polyreactivity screen of Harvey et al. (2022)
